A word on the Km: it is the substrate concentration at which the rate is half of its maximum. A word on the Vmax: it is the top rate of the reaction or transport when substrate is in excess. Usually kcat stands for the number of substrate molecules converted per active site and unit of time at saturation. For orientation: kcat/Km means the turnover number divided by the Michaelis constant.

Holding throughout (assay): purified protein
The test system of one data set is Cc1ccc([S@@+](C)[O-])cc1. As to conditions: 20 uM rTrx, 5 uM rTrxR, 0.2 mM NADPH, 50 mM sodium phosphate pH 7.5, 37 °C, MsrB domain.
The next data set has as its system Cc1ccc([S+](C)[O-])cc1. The settings on record: 20 uM rTrx, 5 uM rTrxR, 0.2 mM NADPH, 50 mM sodium phosphate pH 7.5, 37 °C, racemate, both domains.
Another data set relates to Cc1ccc([S@+](C)[O-])cc1. The settings on record: 20 uM rTrx, 5 uM rTrxR, 0.2 mM NADPH, 50 mM sodium phosphate pH 7.5, 37 °C, MsrA domain.

Regarding rMsrAB (Haemophilus influenzae Rd KW20), in the data set with Cc1ccc([S@@+](C)[O-])cc1, the Km came to 2310 ± 350 µM, the Vmax worked out at 0.26 µmol/min/mg, the kcat was 0.156 ± 0.06 s⁻¹ and the catalytic efficiency (kcat/Km) is 67.5 M⁻¹ s⁻¹. For the same substance, in the data set with Cc1ccc([S+](C)[O-])cc1, the Km stood at 2960 ± 440 µM, the Vmax turned out to be 0.34 µmol/min/mg, the kcat came out at 0.204 ± 0.06 s⁻¹ and the kcat/Km amounted to 68.9 M⁻¹ s⁻¹. For the same substance, in the data set with Cc1ccc([S@+](C)[O-])cc1, the Km was 3620 ± 550 µM, the Vmax was 0.52 µmol/min/mg, the kcat stood at 0.312 ± 0.12 s⁻¹ and the kcat/Km amounted to 86.1 M⁻¹ s⁻¹.

Values taken from paper PMC9404787, “The Peptide Methionine Sulfoxide Reductase (MsrAB) of Haemophilus influenzae Repairs Oxidatively Damaged Outer Membrane and Periplasmic Proteins Involved in Nutrient Acquisition and Virulence” (Antioxidants, 2022).
